Experimental data taken from IntAct's records for PubMed 16513117.

B1: Protein phosphatase Slingshot homolog 1 (Homo sapiens), Q8WYL5 (parent)
chain: MALVTLQRSPTPSAASSSASNSELEAGSEEDRKLNLSLSESFFMVKGAALFLQQGSSPQGQRSLQHPHKHAGDLPQHLQVMINLLRCEDRIKLAVRLESAWADRVRYMVVVYSSGRQDTEENILLGVDFSSKESKSCTIGMVLRLWSDTKIHLDGDGGFSVSTAGRMHIFKPVSVQAMWSALQVLHKACEVARRHNYFPGGVALIWATYYESCISSEQSCINEWNAMQDLESTRPDSPALFVDKPTEGERTERLIKAKLRSIMMSQDLENVTSKEIRNELEKQMNCNLKELKEFIDNEMLLILGQMDKPSLIFDHLYLGSEWNASNLEELQGSGVDYILNVTREIDNFFPGLFAYHNIRVYDEETTDLLAHWNEAYHFINKAKRNHSKCLVHCKMGVSRSASTVIAYAMKEFGWPLEKAYNYVKQKRSITRPNAGFMRQLSEYEGILDASKQRHNKLWRQQTDSSLQQPVDDPAGPGDFLPETPDGTPESQLPFLDDAAQPGLGPPLPCCFRRLSDPLLPSPEDETGSLVHLEDPEREALLEEAAPPAEVHRPARQPQQGSGLCEKDVKKKLEFGSPKGRSGSLLQVEETEREEGLGAGRWGQLPTQLDQNLLNSENLNNNSKRSCPNGMEDDAIFGILNKVKPSYKSCADCMYPTASGAPEASRERCEDPNAPAICTQPAFLPHITSSPVAHLASRSRVPEKPASGPTEPPPFLPPAGSRRADTSGPGAGAALEPPASLLEPSRETPKVLPKSLLLKNSHCDKNPPSTEVVIKEESSPKKDMKPAKDLRLLFSNESEKPTTNSYLMQHQESIIQLQKAGLVRKHTKELERLKSVPADPAPPSRDGPASRLEASIPEESQDPAALHELGPLVMPSQAGSDEKSEAAPASLEGGSLKSPPPFFYRLDHTSSFSKDFLKTICYTPTSSSMSSNLTRSSSSDSIHSVRGKPGLVKQRTQEIETRLRLAGLTVSSPLKRSHSLAKLGSLTFSTEDLSSEADPSTVADSQDTTLSESSFLHEPQGTPRDPAATSKPSGKPAPENLKSPSWMSKS

Variants of: B1
Conditions: with actb_rabit ACTB

Row | Variant | effect of a mutation on the interaction
1 | W458A | disrupting interaction
